The source of these data is the supplement of paper PMC12764529.

± gives the half width of the 95% confidence interval.

Series [1] is described as follows: folding stability dG unfold (combined trypsin and chymotrypsin); higher = more stable. The gist of the method: (§1)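 Sequencing followed digestion of designed mini-proteins with trypsin and chymotrypsin, each at 11 concentrations in threefold dilutions together with a no-protease condition. The mini-proteins were under 80 residues, had no cysteine, sat in a PA-tagged cDNA display construct, and were kept only if AlphaFold2 dimer inter-PAE was above 15. From the counts, Bayesian fitting gave K50, and unfolding free energy was derived against a sequence-predicted unfolded-state K50 and a shared folded-state K50, per protease or combined.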

Series [2] can be described thus: folding stability dG unfold from trypsin proteolysis; higher = more stable. The gist of the method:
as §1

Series [3] can be described thus: folding stability dG unfold from chymotrypsin proteolysis; higher = more stable. The method in brief: as §1

For the sequence “SAGGSAGGSEEKTVLARIKITFPDGEKREIEVEMTLDELKKLLEELGLSEEEVKIEVELVPLPSAGGSAGGS [r20_154_TrROS_Hall]”, the “folding stability dG unfold” value in series [1] stood at 15.9 ± 0.364 kJ/mol; in series [2] it was 16.7 ± 0.46 kJ/mol; in series [3], 14.9 ± 0.297 kJ/mol.

Turning to “SAGGSAGGSEEREYVEVEFEFLARLEDGSLLVTRVRLLLPAEPAELRPEVRSEVLPLAPGEELSAGGSAGGS [r12_811_TrMRF]”, the results for the “folding stability dG unfold” value in series [1], in series [2] and in series [3] were 9.3 ± 0.669 kJ/mol, 6.2 ± 0.297 kJ/mol and 11.3 ± 0.264 kJ/mol, respectively.

Turning to “SAGGSAGGSEFYVIKIKNPETKKEIELVFEGSEEEIKAAIEELAKKPNLKIEIKKIKVSKEELSAGGSAGGS [r12_92_TrROS_Hall]”, the “folding stability dG unfold” value in series [1] was found to be 7.92 ± 0.753 kJ/mol; in series [2] it was 6 ± 0.356 kJ/mol; in series [3] it was 7.44 ± 0.31 kJ/mol.

On to “SAGGSAGGSEITILIKDENGYLIKVKVELKLKKNKDGKKTLELKIEITEIYKVPSKEEAKKLLSAGGSAGGS [r12_915_TrROS_Hall]”, for which the results for the “folding stability dG unfold” value in series [1], in series [2] and in series [3] were 7.43 ± 0.92 kJ/mol, 3.16 ± 0.418 kJ/mol and 8.69 ± 0.46 kJ/mol, respectively.

For “SAGGSAGGSEKEIVLVVKSKEDALKAAEELAKALGLEVEVEVIEVKTLENGEKYVVVKITIKDSAGGSAGGS [r12_924_TrROS_Hall]”, the “folding stability dG unfold” value in series [1] is 15.7 ± 0.837 kJ/mol; in series [2], 15.7 ± 0.669 kJ/mol; in series [3] it was 15.5 ± 0.381 kJ/mol.

In the case of “SAGGSAGGSEKPVLIVKVKVKNPKTKKWEEKTIEVPEGVKTPEEVAKALEKEFGDVVKVEILPSAGGSAGGS [r12_942_TrROS_Hall]”, the “folding stability dG unfold” value in series [1] amounted to 6.84 ± 0.795 kJ/mol; in series [2], 5.22 ± 0.268 kJ/mol; in series [3], 7.78 ± 0.46 kJ/mol.

“SAGGSAGGSEKTLVTRTPDGYLLTLTEFTLPDGSKVTLATITFPNTGKTVTVPASLVPADATGSAGGSAGGS [r12_797_TrMRF]”: the figures for the “folding stability dG unfold” value in series [1], in series [2] and in series [3] were 11 ± 0.172 kJ/mol, 6.09 ± 0.117 kJ/mol and 12.81 ± 0.046 kJ/mol, respectively.

For “SAGGSAGGSELPDGPALVVLPINSKPVVALAKVNSTGKIEVYIPNPGKKFTFDLDQAEVYPVLSAGGSAGGS [r12_782_TrMRF]”, the “folding stability dG unfold” value in series [1] is 1.46 ± 0.255 kJ/mol; in series [2], -0.42 ± 0.343 kJ/mol; in series [3], 2.23 ± 0.418 kJ/mol.

Turning to “SAGGSAGGSEVEITVTETEDTVTVTIRFKDTGKTVTITVPKDMTPEEVLARAKELLKKLGIEPSAGGSAGGS [r12_764_TrROS_Hall]”, the “folding stability dG unfold” value in series [1] was 16.2 ± 1.05 kJ/mol; in series [2], 16.4 ± 0.753 kJ/mol; in series [3] it was 15.7 ± 0.669 kJ/mol.

Take “SAGGSAGGSEVKTKVTLKREDPGSASTSTVDLPKEEAEKLIKEGKEIKLPSGKKASFTKVVPESAGGSAGGS [r12_432_JUSTAS]”: the entries for the “folding stability dG unfold” value in series [1], in series [2] and in series [3] were -0.618 ± 0.837 kJ/mol, -0.814 ± 0.46 kJ/mol and -0.754 ± 1 kJ/mol, respectively.

Take “SAGGSAGGSEYYIYIQIDKNGKIEIVDVVPPGEPMEDMPPEQYDHTIMFPFESPEDALAEILKSAGGSAGGS [r12_452_TrROS]”: the “folding stability dG unfold” value in series [1] came to 3.01 ± 0.314 kJ/mol; in series [2] it was 2.53 ± 0.0795 kJ/mol; in series [3] it was 3.06 ± 0.092 kJ/mol.

“SAGGSAGGSFKVPGGYKVVSVEEDPENKTVEITFADGSKLTIDIEDPNVFKPVKVEAPEGFDVSAGGSAGGS [r12_149_TrMRF]”: the “folding stability dG unfold” value in series [1] is 7.9 ± 0.226 kJ/mol; in series [2] it was 6.48 ± 0.339 kJ/mol; in series [3], 8.53 ± 0.159 kJ/mol.

“SAGGSAGGSGAEEIAKALKELGVKKVEITVERNENGELTVTVRVEVEAPPPKVEVKTEEELKKSAGGSAGGS [r12_246_TrROS_Hall]”: the “folding stability dG unfold” value in series [1] was 3.93 ± 0.879 kJ/mol; in series [2] it was 2.2 ± 0.418 kJ/mol; in series [3] it was 4.24 ± 0.586 kJ/mol.

Take “SAGGSAGGSGDGDYKNDPNGEQERKPKPPPVPPILVFKVELDIDANGNLDLSPDLGWFPPDAISAGGSAGGS [r12_1027_TrROS]”: the “folding stability dG unfold” value was determined as 5.92 ± 0.586 kJ/mol in series [1], 6.5 ± 0.544 kJ/mol in series [2] and 4.32 ± 0.389 kJ/mol in series [3].

Regarding “SAGGSAGGSGDSITLPVSVPKGSELVIENLSTNKKVIIPDDGPVTITIDKGKDGLKISAEVEKSAGGSAGGS [r12_919_TrMRF]”, the “folding stability dG unfold” value was -0.208 ± 1.05 kJ/mol in series [1], -1.66 ± 0.669 kJ/mol in series [2] and 0.443 ± 0.222 kJ/mol in series [3].

As for “SAGGSAGGSGEVLLLSANSFSFSEGDGLLVVVNLPNGGYVVLPFKKGDLNLNLPSSGYSEFFGSAGGSAGGS [r12_746_TrMRF]”, the entries for the “folding stability dG unfold” value in series [1], in series [2] and in series [3] were 6.64 ± 0.243 kJ/mol, 5.46 ± 0.142 kJ/mol and 7.5 ± 0.192 kJ/mol, respectively.

As for “SAGGSAGGSGFPVRLKIWDPDETYTYTVPMDPDNVQKFAEELGEKNFNIETEPNGWATITIPKSAGGSAGGS [r12_292_TrROS]”, the figures for the “folding stability dG unfold” value in series [1], in series [2] and in series [3] were 2.98 ± 0.92 kJ/mol, 1.97 ± 0.335 kJ/mol and 3.98 ± 0.628 kJ/mol, respectively.

As to “SAGGSAGGSGGKPLLIFTAMNGPEAEELVKKLLEEGGAGPIVAVVIPAPKDDPLFKEFFEKLKSAGGSAGGS [r12_649_TrMRF]”, the “folding stability dG unfold” value in series [1] was found to be 5.63 ± 0.586 kJ/mol; in series [2] it was 3.91 ± 0.305 kJ/mol; in series [3], 6.17 ± 0.222 kJ/mol.
